Experimental data: patent US11319601B2, “Cell based assay” (Medical Diagnostic Laboratories, L.L.C., priority 2017, dated 2022)
“Also recorded” adds a separate entry of the source.

Assays:
[1] = target: T1, wild-type HER2 receptor (Homo sapiens, UniProt P04626); test: 6×JNK-Luc reporter in HEK293 DKO #27 cells transfected with HER2 and HER3 expression plasmids; format: cell-based; conditions: 6 hours
T1 construct: expressed in transfected cells
Procedure: In example 4, the generation double knockout cells (HEK293 DKO #27) of HER1 and HER2 receptors was described. No protein expression of HER1 and HER2 receptors was detected by immunoblot assays. In order to characterize whether these cells are desirable for use in the assay of the invention, 6×JNK-Luc was co-transfected with expression plasmids of HER3 and wild-type HER2 receptors. After 24 hours, the transfected cells were treated with a serial dilution of NRG1 (HER3 receptor ligand) for 6 hours. The luciferase reporter activity of the transfected cells was measured by Nano-Glo® Luciferase Assay (Promega).
In order to validate the requirement of HER2 receptor in the activation of 6×JNK-Luc reporter in response to NRG1 treatment, the DKO #27 cells were transfected with the wild-type HER2 and HER3 expression plasmids followed by treatment of HER2 inhibitors for 6 hours. The luciferase reporter activity of the treated cells was measured by Nano-Glo® Luciferase Assay (Promega). […]
In order to validate that this 6×JNK-Luc reporters has the capacity of measuring HER2 receptor activity, the reporters were co-transfected with expression plasmids of HER3 and wild-type, constitutively active or kinase-dead HER2 receptors into the DKO #27 cells. […] The luciferase reporter activity of the transfected cells was measured by Nano-Glo® Luciferase Assay (Promega). […]

[2] = target: T1, wild-type HER2 receptor; test: HER2 reporter cells (clone #1) transfected with wild-type HER2, 384-well plate; format: cell-based
Procedure: Clone #1 is alternately referred to as the “HER2 reporter cells”. These cells were transiently transfected with the wild-type, constitutively active or kinase-dead forms of HER2 receptors in the 384-well format. After 24 hours, the transfected cells were treated with NRG1. The luciferase reporter activity of the transfected cells was measured by Nano-Glo® Luciferase Assay (Promega). […] The reporter activity of the transfected cells expressing the wild-type form of HER2 receptor was activated upon treatment with NRG1 (FIG. 25). When the cells were transfected with the constitutively active form of HER2 receptor, the reporter activity was activated in the absence of NRG1. However, no activation of reporter was detected when the cells were transfected with the kinase-dead form of HER2 receptor.
The HER2 reporter cells were first transfected with 100 ng of linear expression cassette of HER2. NRG1 was added to the cells 24 hours post-transfection. […] A robust reporter signal was detected even at 2.5 ng/ml of NRG1.
To further reduce the assay turnaround time, different stimulation methods were explored. The first method evaluated was Example 9d which was performed by addition of NRG1 to the cells 24 hours post-transfection for 4, 6 and 24 hours. […] The reporter activity was measured 24 hours post-transfection (FIG. 27A). […]

In the case of “NRG1: neuregulin-1, HER3 receptor ligand”, the “6×JNK-Luc reporter activation by ligand” value [1] is reported as “dose dependent activation; also recorded: activated” and the “reporter activation by ligand” value [2] is reported as “activated; also recorded: dose-dependent response; also recorded: good dose response; also recorded: dose dependent manner”.
